The term stoichiometry N denotes the number of molecules, sites or subunits per partner or assembly.

This assay has as its target ISAV s8ORF2 protein (protein encoded by the largest open reading frame of gene segment 8) (infectious salmon anaemia virus (ISAV), strain Glesvaer/2/90). As to the kind of experiment: non-reducing SDS-PAGE with western blot. On the technique in general: Immunoblotting shows a protein as a band on a membrane.

Consider “ISAV s8ORF2 protein (protein encoded by the largest open reading frame of gene segment 8) (natural protein)”, for which the stoichiometry N was determined as 2.
